Where “and” joins values, the source holds several entries; their conditions need not be identical. Equal entries are not always repeated.
How the values were obtained:
[1] = target: T1, human MASP-2 (endogenous, in normal human serum) (human, UniProt O00187 16-686); experiment: cell-based or functional assay
[2] = target: cynomolgus monkey MASP-2 (endogenous, in cynomolgus monkey serum) (cynomolgus monkey, UniProt O00187 16-686 (human entry), limits assumed); experiment: cell-based or functional assay
cynomolgus monkey MASP-2 (endogenous, in cynomolgus monkey serum), sequence (O00187 other isoform, or with tags, fused parts or gaps limits assumed): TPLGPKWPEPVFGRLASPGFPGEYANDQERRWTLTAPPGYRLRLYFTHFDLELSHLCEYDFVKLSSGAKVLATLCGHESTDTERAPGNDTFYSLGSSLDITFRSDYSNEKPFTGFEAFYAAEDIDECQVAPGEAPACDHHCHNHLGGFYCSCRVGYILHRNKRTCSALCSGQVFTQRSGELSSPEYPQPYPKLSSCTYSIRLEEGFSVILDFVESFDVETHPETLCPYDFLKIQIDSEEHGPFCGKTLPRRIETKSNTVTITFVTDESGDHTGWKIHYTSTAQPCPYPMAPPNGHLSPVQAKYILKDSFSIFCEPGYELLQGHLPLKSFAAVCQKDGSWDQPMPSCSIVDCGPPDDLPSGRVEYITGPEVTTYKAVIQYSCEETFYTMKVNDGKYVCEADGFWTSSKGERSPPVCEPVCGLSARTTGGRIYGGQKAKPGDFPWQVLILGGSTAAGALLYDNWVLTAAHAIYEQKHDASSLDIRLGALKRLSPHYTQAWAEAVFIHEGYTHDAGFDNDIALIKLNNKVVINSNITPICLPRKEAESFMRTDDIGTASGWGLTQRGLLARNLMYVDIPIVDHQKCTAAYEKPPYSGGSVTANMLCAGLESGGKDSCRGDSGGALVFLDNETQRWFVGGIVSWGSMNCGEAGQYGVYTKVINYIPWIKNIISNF

[3] = target: rat MASP-2 (endogenous, in rat serum) (rat, UniProt Q9JJS8 20-685); experiment: cell-based or functional assay
rat MASP-2 (endogenous, in rat serum), sequence (Q9JJS8 other isoform, or with tags, fused parts or gaps limits assumed): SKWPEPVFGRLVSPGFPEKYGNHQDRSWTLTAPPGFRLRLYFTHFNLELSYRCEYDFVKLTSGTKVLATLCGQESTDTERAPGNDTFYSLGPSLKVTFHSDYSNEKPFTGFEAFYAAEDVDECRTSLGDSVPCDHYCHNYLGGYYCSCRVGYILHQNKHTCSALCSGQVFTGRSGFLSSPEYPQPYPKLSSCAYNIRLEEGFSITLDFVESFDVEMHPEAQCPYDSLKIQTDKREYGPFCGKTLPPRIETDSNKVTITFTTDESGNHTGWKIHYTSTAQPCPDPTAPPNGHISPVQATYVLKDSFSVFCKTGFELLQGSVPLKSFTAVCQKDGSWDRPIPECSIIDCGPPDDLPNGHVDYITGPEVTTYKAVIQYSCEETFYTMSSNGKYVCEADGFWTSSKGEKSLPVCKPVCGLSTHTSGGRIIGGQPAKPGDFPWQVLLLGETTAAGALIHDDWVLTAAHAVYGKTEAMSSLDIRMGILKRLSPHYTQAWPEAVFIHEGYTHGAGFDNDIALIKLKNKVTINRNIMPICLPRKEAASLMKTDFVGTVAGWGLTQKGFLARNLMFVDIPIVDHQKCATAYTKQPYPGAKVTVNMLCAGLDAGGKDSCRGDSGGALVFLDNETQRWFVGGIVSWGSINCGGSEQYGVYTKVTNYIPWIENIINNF

[4] = target: mouse MASP-2 (endogenous, in mouse serum or hirudin plasma) (mouse, UniProt Q91WP0 20-685); experiment: cell-based or functional assay
mouse MASP-2 (endogenous, in mouse serum or hirudin plasma), sequence (Q91WP0 20-685 limits assumed): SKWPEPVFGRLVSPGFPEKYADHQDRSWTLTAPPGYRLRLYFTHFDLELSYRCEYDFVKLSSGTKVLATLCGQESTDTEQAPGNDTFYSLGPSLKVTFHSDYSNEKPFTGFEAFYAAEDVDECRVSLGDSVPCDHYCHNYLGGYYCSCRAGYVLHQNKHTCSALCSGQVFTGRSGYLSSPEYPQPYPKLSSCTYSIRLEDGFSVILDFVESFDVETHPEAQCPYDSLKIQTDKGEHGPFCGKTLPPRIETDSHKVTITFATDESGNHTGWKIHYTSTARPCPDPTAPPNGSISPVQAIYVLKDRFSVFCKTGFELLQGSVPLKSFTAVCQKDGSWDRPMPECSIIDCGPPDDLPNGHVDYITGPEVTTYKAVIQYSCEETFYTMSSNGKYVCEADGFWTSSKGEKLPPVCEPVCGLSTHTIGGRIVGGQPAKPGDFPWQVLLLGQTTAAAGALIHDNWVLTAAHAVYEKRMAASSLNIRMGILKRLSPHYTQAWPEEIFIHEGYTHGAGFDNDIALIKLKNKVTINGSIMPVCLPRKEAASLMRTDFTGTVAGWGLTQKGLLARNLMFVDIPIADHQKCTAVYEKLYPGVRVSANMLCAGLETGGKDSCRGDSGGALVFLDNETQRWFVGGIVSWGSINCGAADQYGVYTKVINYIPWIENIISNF

[5] = target: T1, human MASP-2 (endogenous, in normal …); experiment: cell-based or functional assay; remark: listed apart in the source
[6] = target: T2, human MASP-2 (CCP1-CCP2-SP fragment) (human, UniProt O00187 287-686, limits assumed); experiment: solid phase ELISA, plate coated with human MASP-2 CCP1-CCP2-SP fragment
T2 construct: also called human MASP-2 (CCP1/2/SP fragment); hMASP-2-CCP1-CCP2-SP
T2 sequence (O00187 287-686 limits assumed): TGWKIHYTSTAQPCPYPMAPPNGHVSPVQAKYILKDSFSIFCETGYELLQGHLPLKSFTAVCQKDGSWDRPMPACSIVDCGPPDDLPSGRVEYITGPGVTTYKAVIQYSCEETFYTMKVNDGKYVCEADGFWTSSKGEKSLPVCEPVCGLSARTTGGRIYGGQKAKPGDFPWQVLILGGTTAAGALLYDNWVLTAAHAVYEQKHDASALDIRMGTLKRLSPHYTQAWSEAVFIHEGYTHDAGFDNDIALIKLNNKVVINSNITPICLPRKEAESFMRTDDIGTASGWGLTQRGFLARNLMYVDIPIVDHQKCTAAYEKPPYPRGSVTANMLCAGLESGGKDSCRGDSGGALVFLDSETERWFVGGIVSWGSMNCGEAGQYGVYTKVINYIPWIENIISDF
Procedure: To measure binding of the 26 purified recombinant MASP-2 antibodies to human MASP-2 (CCP1-CCP2-SP fragment), a solid phase ELISA assay was carried out as follows. A MaxiSorp ELISA plate was coated with human MASP-2 (CCP1/2/SP fragment) at 1.0 μg/mL in carbonate/bi-carbonate buffer overnight at 4° C. […] The plate was washed (PBS-T, 0.05%) and a detection antibody was added (goat anti-human IgG-HRP) for one hour at room temperature. After another wash (PBS-T, 0.05%) the plate was developed (5 minutes) with OPT EIA TMB (BD Biosciences #555214). Absorbance reading at A450 was measured using the Spectramax M5e plate reader.
A solid phase ELISA assay was carried out to measure binding of the three selected MASP-2 inhibitory antibodies to human MASP-2 (CCP1-CCP2-SP fragment), as described in Example 1.

[7] = target: T1, human MASP-2 (endogenous, in normal …); experiment: cell-based or functional assay; remark: listed apart in the source
[8] = target: T1, human MASP-2 (endogenous, in normal …); experiment: cell-based or functional assay; remark: listed apart in the source

T1 sequence (O00187 16-686 limits assumed): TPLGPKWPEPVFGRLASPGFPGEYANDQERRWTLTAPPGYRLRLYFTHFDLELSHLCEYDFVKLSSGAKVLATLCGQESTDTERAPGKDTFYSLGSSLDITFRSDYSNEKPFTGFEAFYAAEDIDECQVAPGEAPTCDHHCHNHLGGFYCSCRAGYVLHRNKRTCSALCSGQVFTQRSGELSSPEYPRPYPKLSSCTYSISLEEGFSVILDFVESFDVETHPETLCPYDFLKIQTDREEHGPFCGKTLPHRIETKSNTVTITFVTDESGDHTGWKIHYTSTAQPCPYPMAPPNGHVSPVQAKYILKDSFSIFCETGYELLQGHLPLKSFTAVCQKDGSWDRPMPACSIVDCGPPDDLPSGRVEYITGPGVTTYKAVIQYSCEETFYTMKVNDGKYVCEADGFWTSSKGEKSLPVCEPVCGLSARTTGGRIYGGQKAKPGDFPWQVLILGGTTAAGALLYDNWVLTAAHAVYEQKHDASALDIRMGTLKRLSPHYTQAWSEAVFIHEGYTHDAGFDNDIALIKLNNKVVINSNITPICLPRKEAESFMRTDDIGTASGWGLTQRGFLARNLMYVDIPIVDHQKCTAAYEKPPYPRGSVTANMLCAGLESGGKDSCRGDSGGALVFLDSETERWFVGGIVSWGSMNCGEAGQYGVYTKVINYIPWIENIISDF

Row | Binder | C3b deposition on mannan, 1.0% human serum, IC50 [1] [nM] | C3b deposition on mannan, 0.25% cynomolgus monkey serum, IC50 [2] [nM] | C3b deposition on mannan, 0.3% rat serum, IC50 [3] [nM] | C3b deposition on mannan, 1.0% mouse serum, IC50 [4] [nM] | C4b deposition on mannan, 50% human serum, IC50 [5] [µg/mL] | EC50 [6] [nM] | Human C3b deposition, IC50 [7] [nM] | Human C3b deposition, 1% human serum, IC50 [8]
1 | mAb OMS870 (mouse-human chimeric, mouse parental variable regions) (antibody, human IgG4 S228P, kappa, V domains shown) VH: EVQLQQPGTELVKPGASVKLSCKASGYTFTSYWMHWVKQRPGQGLEWIGNINPSNGGTNCNEKFKNKATMTVDKSSSTAYMQLSSLTSEDSAVYYCARWAYDAMDYWGQGTSVTVSS VL: DIVLTQSPASLAVSLGQRATISCRASESVDSYGNSFMHWYQQKPGQAPKLLIYFASNLESGVPARFSGSGSRTDFTLTIDPVEADDAATYFCQQSNEDPLTFGAGTKLELKR | 0.13 | 18.9 | 0.6 | > 100 | 0.09 | 0.41 | – | –
2 | mAb OMS850 (mouse-human chimeric, mouse parental variable regions) (antibody, human IgG4 S228P, kappa, V domains shown, also called OMS850 parent) VH: QVQLQQPGAELVRPGSSVRLSCKASGYTFTNYWMHWLKQRPIQGLEWIGDIDPSDSETHYIEKFKDKATLTIDKSSSTAYMHLSSLTSEDSAIYYCARGDITTTLRYFDVWGTGTTVTVSS VL: QIVLTQSPVIMSASPGEKVTMTCSASSSVRYMYWYQQKPGSSPRLLIYDTSNLASGVPVRFSGSGSGTSNSLTISRMEAEDAATYYCQQWSSYPLTFGAGTKLELKR | 0.15 | 0.4 | 0.05 | 0.5 | 0.07 | 0.25 | 0.09 | 0.15 nM and 0.12 nM
3 | OMS850_VH_P53/N (antibody, IgG4, V domains shown) VH: QVQLQQPGAELVRPGSSVRLSCKASGYTFTNYWMHWLKQRPIQGLEWIGDIDNSDSETHYIEKFKDKATLTIDKSSSTAYMHLSSLTSEDSAIYYCARGDITTTLRYFDVWGTGTTVTVSS VL: QIVLTQSPVIMSASPGEKVTMTCSASSSVRYMYWYQQKPGSSPRLLIYDTSNLASGVPVRFSGSGSGTSNSLTISRMEAEDAATYYCQQWSSYPLTFGAGTKLELKR | – | – | – | – | – | – | 0.53 | –
4 | OMS854 (monoclonal antibody OMS852 4PA-1) (antibody, V domains shown) VH: QVQLVQSGAEVKKPGASVKVSCKASGYTFTNYWMHWLRQAPGQGLEWIGDIDASDSETHYIEKFKDRATLTIDKSSSTAYMELSSLRSEDTAVYYCARGDITTTLRYFDVWGQGTLVTVSS VL: DIQLTQSPSSLSASVGDRVTITCSASSSVRYMYWYQQKPGKAPKLLIYDTSNLASGVPSRFSGSGSGTDNTLTISSLQPEDFATYYCQQWSSYPLTFGQGTKVEIKR | – | – | – | – | – | – | – | 0.09 nM

More lines, now with the values ahead:

Row | C3b deposition on mannan, 1.0% human serum, IC50 [1] [nM] | C3b deposition on mannan, 0.25% cynomolgus monkey serum, IC50 [2] [nM] | C3b deposition on mannan, 0.3% rat serum, IC50 [3] [nM] | C3b deposition on mannan, 1.0% mouse serum, IC50 [4] [nM] | C4b deposition on mannan, 50% human serum, IC50 [5] [µg/mL] | EC50 [6] [nM] | Human C3b deposition, IC50 [7] [nM] | Human C3b deposition, 1% human serum, IC50 [8] | Binder
5 | – | – | – | – | – | – | 0.16 | – | OMS850_VH_P53/D (antibody, IgG4, V domains shown) VH: QVQLQQPGAELVRPGSSVRLSCKASGYTFTNYWMHWLKQRPIQGLEWIGDIDDSDSETHYIEKFKDKATLTIDKSSSTAYMHLSSLTSEDSAIYYCARGDITTTLRYFDVWGTGTTVTVSS VL: QIVLTQSPVIMSASPGEKVTMTCSASSSVRYMYWYQQKPGSSPRLLIYDTSNLASGVPVRFSGSGSGTSNSLTISRMEAEDAATYYCQQWSSYPLTFGAGTKLELKR
6 | – | – | – | – | – | – | 0.07 | – | OMS850_VH_P53/A (antibody, IgG4, V domains shown) VH: QVQLQQPGAELVRPGSSVRLSCKASGYTFTNYWMHWLKQRPIQGLEWIGDIDASDSETHYIEKFKDKATLTIDKSSSTAYMHLSSLTSEDSAIYYCARGDITTTLRYFDVWGTGTTVTVSS VL: QIVLTQSPVIMSASPGEKVTMTCSASSSVRYMYWYQQKPGSSPRLLIYDTSNLASGVPVRFSGSGSGTSNSLTISRMEAEDAATYYCQQWSSYPLTFGAGTKLELKR
7 | 0.6 | 26.2 | 0.3 | 5.8 | 0.1 | 0.23 | – | – | mAb OMS860 (mouse-human chimeric, mouse parental variable regions) (antibody, human IgG4 S228P, kappa, V domains shown) VH: QVQLQQPGAELVRPGSSVKLSCKASGYTFTNYWMHWVRQRPIQGLEWIGDIDPSDSEIYYNQKFKDKATLTVDKSSSTAYMHLSSLTSEDSAVYYCARGDITTTLRYFDVWGTGTTVTVSS VL: QIVLTQSPVIMSASPGEKVTITCSASSSVSYMYWYQQKPGSSPRLLIYDTSNLASGVPVRFSGSGSGTSNSLTISRMEAEDAATYYCQQWSSYPLTFGAGTKLELKR
